Results on 41 sequences are retold here after the nanobody polyreactivity screen of Harvey et al. (2022).

This data set is described as follows: yeast display, Sf9 membrane polyspecificity reagent, FACS + sequencing; frameworks hold sequencing errors. In short, it runs like this:
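Synthetic nanobody libraries on Saccharomyces cerevisiae BJ5465 were galactose-induced for 36–48 hours, stained 1 hour at 4 °C with 10% biotinylated, detergent-solubilized Sf9 membrane reagent and enriched on streptavidin microbeads. FACS then separated cells into low and high (top ~1%) gates by anti-HA (expression) and streptavidin (reagent binding) fluorescence. Genes were colony-PCR amplified, MiSeq 2 × 250 sequenced and CDR-length filtered. A clone's polyreactivity label is that of its gate of origin.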
As to “QVQLVESGGGLVQAGGSLRLSCAASGITFVRYAMGWYRQAPGKERELVAAINSDGNTYYADSVKGRFTISRDTAKNTVYLQLNSLKPEDTACYYCAAGQGAGVDYWGQGTQVTVSS”, the “polyreactivity (PSR sort gate)” value is “high polyreactivity”.

Take “QVQLVESGGGLVQAGGSLRLSCAASGITFVYYAMGWYRQAPGKERELVAGIDWSGGSTYYADSVKGRFTISRDNAKNTVYLQMNSLKPEDTAVYYCAAEFWLSTDFYYWGQGTQVTVSS”: the “polyreactivity (PSR sort gate)” value is given as “high polyreactivity”.

Take “QVQLVESGGGLVQAGGSLRLSCAASGITFVYYTMGWYRQAPGKERELVASITWDGGSTYYADSVKGRFTISRDNAKNTVYLQMNSLKPEDTAVYYCNRDRVSGGKYNYWGQGTQVTVSS”: the “polyreactivity (PSR sort gate)” value was “low polyreactivity”.

As to “QVQLVESGGGLVQAGGSLRLSCAASGITFWQNTMGWYRQAPGKERELVAAISWTGGRTYYADSVKGRFTISRDNAKNTVYLQMNSLKPEDTAVYYCNTGHEEDEDDYWGQGTQVTVSS”, the “polyreactivity (PSR sort gate)” value is recorded as “low polyreactivity”.

In the case of “QVQLVESGGGLVQAGGSLRLSCAASGITFWRYALGWYRQAPGKEMELVAASRWSGSTYADSVKGRFTISRDNAKNTVYLQMNSLKPEDTAVYYCAAYPIGGYHDMDYWGQGTQVTVSS”, the “polyreactivity (PSR sort gate)” value is recorded as “high polyreactivity”.

Take “QVQLVESGGGLVQAGGSLRLSCAASGITFWTYAMGWYRQAPGKERELVARISKSGARTFYADSVKGRFTLSRDNAKNTVYLQMNSLKPEDTAVYYCAADFRSNYDYWGQGTQVTVSS”: the “polyreactivity (PSR sort gate)” value is recorded as “high polyreactivity”.

Turning to “QVQLVESGGGLVQAGGSLRLSCAASGITFWYNAMGWYRQAPGKERELVAAITRTGSTNYADSVKGRFTISRDNAKNTVYLQMNSLKPEDTAVYYCAAYLGWPWGYYSWGQGTQVTVSS”, the “polyreactivity (PSR sort gate)” value is on record as “high polyreactivity”.

“QVQLVESGGGLVQAGGSLRLSCAASGITFWYYAMGWYRQAPGKERELVAAITRSGRTNYADSVKGRFTISRDNAKNTVYLQMNSLKPEDTAVYYCAVYLYSFSPRYYYWGQGTQVTVSS”: the “polyreactivity (PSR sort gate)” value is “low polyreactivity”.

As to “QVQLVESGGGLVQAGGSLRLSCAASGITFWYYAMGWYRQEPGKERELVAAISSSGGRTTYADSVKGRFTISRDNAKNTVYLQMNSLKPEDTAVYYCNADRRRYQHRRGSSVYLYDYWGQGTQVTVSS”, the “polyreactivity (PSR sort gate)” value is “high polyreactivity”.

With “QVQLVESGGGLVQAGGSLRLSCAASGITFYAYVMGWYRQAPGKERELVAAISGGGSTYYADSVKGRFTISRDNAKNTVYLQMNSLKPEDTAVYYCNAELSFWDLGYDYWGQGTQVTVSS”, the “polyreactivity (PSR sort gate)” value is recorded as “low polyreactivity”.

For the sequence “QVQLVESGGGLVQAGGSLRLSCAASGITFYDNAMGWYRPAPGKEWELVAGISYDGDSTYADSVKGRFTISRDNAKNTVYLQINSLKPEDTAVYYCAALGPYDWLWAGDYWGQGTQVTVSS”, the “polyreactivity (PSR sort gate)” value is “low polyreactivity”.

For “QVQLVESGGGLVQAGGSLRLSCAASGITFYDNVMGWYRQAPGKERELVAAITSGGSTNYADSVKGRFTISRDNAKNTVYFQMNRLKPEDTAVYYCAAQPRVDYEFPYRYGYWGQGTQVTVSA”, the “polyreactivity (PSR sort gate)” value is reported as “low polyreactivity”.

As for “QVQLVESGGGLVQAGGSLRLSCAASGITFYDYAMGWYRPAPGKERELVAAINSGDSTNYADSVKGRFTISRDNAKNTVYLQMNSLKPEDTAVYYCAADRYYYSWYTIWYRERIYYWGQGTQVTVSS”, the “polyreactivity (PSR sort gate)” value is recorded as “low polyreactivity”.

“QVQLVESGGGLVQAGGSLRLSCAASGITFYDYAMGWYRQAPGKERELVAAISDSGGITYYADSVKGRFTISRDNAKNTVYLQMNSLKPEDTAVYFCAAEDQLNRDYWGQGTQVTVSS”: the “polyreactivity (PSR sort gate)” value is “high polyreactivity”.

Regarding “QVQLVESGGGLVQAGGSLRLSCAASGITFYDYAMGWYRQAPGKERELVASIDNSGGSTYYADSVKGRFTISRDNAKNTVYLQMNSLNPEDTAVYYCAAVSRYYFLGVAFLDDYWGQGTQVTVSS”, the “polyreactivity (PSR sort gate)” value is reported as “high polyreactivity”.

With “QVQLVESGGGLVQAGGSLRLSCAASGITFYEYAMGWYRQAPGKEREFVAAIDDGDSSTYYADSVKGRFTISRDNAKNTVYLQMHSLKPEDTAVYYCNADPYYVYSLNWGDFWGQGTQVTVSS”, the “polyreactivity (PSR sort gate)” value is “low polyreactivity”.

Consider “QVQLVESGGGLVQAGGSLRLSCAASGITFYEYTMGWYRQAPGKERELVAVIRKTGGSTYYADSVKGRFTISRDNAKNTVYLQMNSLKPEDTAVYYCAARKRYQRGYWGQGTLVTVSS”, for which the “polyreactivity (PSR sort gate)” value is “high polyreactivity”.

“QVQLVESGGGLVQAGGSLRLSCAASGITFYFNAMGWYRQAPGKERELVAAITFSGSSTYYADSVKGRFTISRDKAKNTVYLQMNSLKPEDTAVYYCAAYFTRYDFRWHTYYYWGEGTQVTVSS”: the “polyreactivity (PSR sort gate)” value is recorded as “low polyreactivity”.

As to “QVQLVESGGGLVQAGGSLRLSCAASGITFYFNAMGWYRQAPGKERELVAVITSGGSTNYADSVKGRFTISRDNAKNTVYLQMNSLKPEDTAVYYCANDKSYSSWSAQYDYWGQGTHVTVSS”, the “polyreactivity (PSR sort gate)” value is “low polyreactivity”.

As to “QVQLVESGGGLVQAGGSLRLSCAASGITFYFYAMGWSRQAPGKERELVSTISGGGSTSYADSVKGRFTISRDNAKNSVYLQMNSLKPEDTAVYYCAATGYSLRSGKRRPLRSGYYYWGQGTQVTVSW”, the “polyreactivity (PSR sort gate)” value was “high polyreactivity”.

For the sequence “QVQLVESGGGLVQAGGSLRLSCAASGITFYFYAMGWYRQAPGKERELVASITSSGSTDYADSVKGRFTISRDNAKNTVYLQMNSLKPEDTAVYYCAADVQNHFYSFGDERGFPFDYWGQGTQVTVSS”, the “polyreactivity (PSR sort gate)” value is on record as “low polyreactivity”.

For the sequence “QVQLVESGGGLVQAGGSLRLSCAASGITFYGNAMGWYRQAPGTERELVAAITGGGGTNYADSVKGRFTISRDNAKNTVYLQMNSLKPEDTAVYYCNRDYFVWFQRGQYKRGSSWYDYWGQGTQVTVSS”, the “polyreactivity (PSR sort gate)” value is recorded as “low polyreactivity”.

On to “QVQLVESGGGLVQAGGSLRLSCAASGITFYGYAMGWSRPAPGKERELVAVITSSGSSTYYADSVKGRFTISRDKAKNTVYVQMNSLKPEDTAVYDCNARPGRRSLRSRTYDYWGQGTQVTVSS”, for which the “polyreactivity (PSR sort gate)” value is listed as “high polyreactivity”.

“QVQLVESGGGLVQAGGSLRLSCAASGITFYGYAMGWYRQAPGKERELVAAISGNGGRTYYADSVKGRFTISRDNAKNTVYLQMNSLKPEDTAVYYCNVKVRSRRTGDRYDYWGQGTQVTVSS”: the “polyreactivity (PSR sort gate)” value is recorded as “high polyreactivity”.

As to “QVQLVESGGGLVQAGGSLRLSCAASGITFYGYAMGWYRQAPGKERELVAAISKSGGSTHYADSVKGRFTISRDNAKNTVYLQMNSLKPEDTAVYYCAAAYWTRLRRMDYWGQGTQVTVSS”, the “polyreactivity (PSR sort gate)” value is “low polyreactivity”.

With “QVQLVESGGGLVQAGGSLRLSCAASGITFYGYAMGWYRQAPGKERELVARISSGGTTKYADSVKGRFTISRDNAKNTVYLQMNSLKPEDTAVYYCAVGGSWWYYGFYYWGQATQVTVSS”, the “polyreactivity (PSR sort gate)” value is “high polyreactivity”.

Take “QVQLVESGGGLVQAGGSLRLSCAASGITFYGYAMGWYRQAPGKERELVARITISGRTNYADYVKGRFTISRDNAKNTVYLQMNSLKPEDTAVYYCATLVHWSYPYYYWGQGTQVTVSS”: the “polyreactivity (PSR sort gate)” value is given as “high polyreactivity”.

“QVQLVESGGGLVQAGGSLRLSCAASGITFYGYAMGWYRQAPGKERELVASINSTGSTNYADSVKGRFTISRDNAKNTVYLQMNSLKPDDTAVYYCAARYRDGYRSKRKFGYWGQGTQVTVSS”: the “polyreactivity (PSR sort gate)” value is reported as “high polyreactivity”.

For the sequence “QVQLVESGGGLVQAGGSLRLSCAASGITFYGYAMGWYRQAPGKERELVAVITSSGSSTYYADSVKGRFTISRDNAKNTVYLQMNSLTPEDTAVYYCNARPGRRSLRSRTYDYWGQGTQVTVSS”, the “polyreactivity (PSR sort gate)” value is recorded as “high polyreactivity”.

For the sequence “QVQLVESGGGLVQAGGSLRLSCAASGITFYGYTIGWYRQAPGKERELVATITRGGSTYYADSVKGRFTISLDNAKNTVYLQMNSLKPEDTAGYYCAAESQYDYGVEFDYWGQGTQVTVSS”, the “polyreactivity (PSR sort gate)” value is reported as “low polyreactivity”.

With “QVQLVESGGGLVQAGGSLRLSCAASGITFYGYTMGWYRQAPGKERELVAAITYFGSTYYADSVKGRFTISRDNAKNTVYLQMNSLKPEDTAVYYCAAQRFRSGWFGYWGQGTQVTVSS”, the “polyreactivity (PSR sort gate)” value is listed as “high polyreactivity”.

For the sequence “QVQLVESGGGLVQAGGSLRLSCAASGITFYHYAMGWYRQAPGKERELVAAITRSGGRTYYADSVKGRFTISRDNAKNTVFLQMNSLKPEDTAVYYCATDDRQGYFRSPREYDYWGQGTQVTVSS”, the “polyreactivity (PSR sort gate)” value was “high polyreactivity”.

“QVQLVESGGGLVQAGGSLRLSCAASGITFYKNAMGWYRQAPGKERELVAAISSGGGTTYADSVKGRFTISRDNAKNTVYLQMNSLKPEDTAVYYCAADRRYYWYNYWGLGTQVTVSS”: the “polyreactivity (PSR sort gate)” value is recorded as “high polyreactivity”.

In the case of “QVQLVESGGGLVQAGGSLRLSCAASGITFYKYVMGWYRQAPGKERELVAAISSVGSTYYADSVKGRFTISRDNAKNTVYLQMNSLKPEDTAVYYCNARVYYSTTRYYVRVDYWGQGTQVTVSS”, the “polyreactivity (PSR sort gate)” value was “high polyreactivity”.

For the sequence “QVQLVESGGGLVQAGGSLRLSCAASGITFYKYVMGWYRQAPGKETELVAAISSVGSTYYADSVKGRFTISRDNAKNTVYLQMNSLKPEDTAVYYCAAKYWKCYHYGFGYWGQGTQVTVSS”, the “polyreactivity (PSR sort gate)” value is given as “high polyreactivity”.

For “QVQLVESGGGLVQAGGSLRLSCAASGITFYLNAMVWYRQAPGKERELVADITVSGGSTYYADSVKGRFTISRDYAKNTVYLQMNRLKPEDTAVYYCAADLTISYSQEYYYWGQGTQVTVSS”, the “polyreactivity (PSR sort gate)” value is reported as “low polyreactivity”.

As to “QVQLVESGGGLVQAGGSLRLSCAASGITFYPYAMGWYRQAPGKERELVAAITGSGGRTYYADSVKGRFTISRDNAKNTVYLQMNSLKPEDTAVYYCAKVARYPDMGYWGQGTQVTVSS”, the “polyreactivity (PSR sort gate)” value was “high polyreactivity”.

On to “QVQLVESGGGLVQAGGSLRLSCAASGITFYPYAMGWYRQAPGKERELVASISWSGGSTYYADSVKGRFTISRDNAKNTVYLQMNSLKPEDTAVFYCNAEYWLPYYPDYDYWGQGTQVTVSS”, for which the “polyreactivity (PSR sort gate)” value is reported as “low polyreactivity”.

“QVQLVESGGGLVQAGGSLRLSCAASGITFYRNAMGSYRQAPGKERELVADIDVGDGTYYADSVKGRFTISRDNCKNTVYLQMNSLKPEDTAVYYCNKTFLFLEYDSWGQGTQVTVSS”: the “polyreactivity (PSR sort gate)” value is on record as “low polyreactivity”.

“QVQLVESGGGLVQAGGSLRLSCAASGITFYRYAMGWSRQAPGKERELVAAITWSGGSTYYADSVKGRFTISRDNAKNTVYLQMNSLKPEDTAVYYCAAVLYSPDFFGNYDYWGQGTQVTVSS”: the “polyreactivity (PSR sort gate)” value is “low polyreactivity”.

For “QVQLVESGGGLVQAGGSLRLSCAASGITFYRYAMGWYREAPGKERELVAAISRSGGGTHYADTVKGRFTISRDNAMNTVYLQMYCLKPEDTAVFYCAASAYSYDYWGQGNQVTVSS”, the “polyreactivity (PSR sort gate)” value is on record as “high polyreactivity”.
